Experiments:
DIPG13p xenografts = assay: DIPG13p xenograft survival; type: in vivo; conditions: 30 mg/kg oral gavage daily (5 days on/2 days off) until death, DIPG 13p cells in pons of NSG mice
Excerpt: Blockade of CSPG4 RIP via gamma secretase inhibition attenuates glioma growth. Given that CSPG4 is the largest and most structurally complex member of the surfaceome with several validated binding partners and numerous reported functions, we sought to disrupt signaling events downstream of CSPG4 RIP. To that end, we xenografted human glioma cells into pons of immune-deficient mice and treated them with gamma secretase inhibitor to prevent CSPG4 RIP. The treatment of murine OPCs with a gamma secretase inhibitor accelerated their differentiation in vitro as assessed by MBP staining and in line with reports from others.
Treatment was continued daily (5 days on/2 days off) until death with mice receiving 30 mg/kg of gamma secretase inhibitor or matched vehicle by oral gavage.

DIPG6 xenografts = assay: DIPG6 xenograft survival; type: in vivo; conditions: 40 mg/kg IP, 5 days with 2 days of rest, P130 through P158, DIPG6 cells in cortices of NSG mice
Method: Dosing of 40 mg/kg was administered via IP injection for 5 days with 2 days of rest in between cycles. Mice were then followed until death.

CTLA4 = target: T1, CTLA4 (Homo sapiens, UniProt P16410); conditions: cited from earlier work
T1 construct: CTLA4 is expressed exclusively on T cells; host or cells: patients' T cells (endogenous)
T1 sequence (P16410 36-223): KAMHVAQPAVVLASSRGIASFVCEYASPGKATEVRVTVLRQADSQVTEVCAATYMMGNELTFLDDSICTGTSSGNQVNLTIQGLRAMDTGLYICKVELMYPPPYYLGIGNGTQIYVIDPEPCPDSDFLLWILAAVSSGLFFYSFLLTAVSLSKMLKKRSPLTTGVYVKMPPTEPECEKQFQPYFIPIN

[1] = system: CSPG4 shedding from glioma cells (DIPG neurospheres 13pons, 21); assay: CSPG4 Release Assay (western blot of conditioned medium); type: cell-based, human
Excerpt: (§1) Here, we provide evidence that both NLGN3 and CSPG4 ectodomains are in fact cleaved in response to neuronal activity, but that these events are separated in space and time. NLGN3 undergoes ADAM-mediated cleavage in response to glutamate-mediated depolarization, freeing the NLGN3 ectodomain to bind the LNS domains of CSPG4 and induce its subsequent cleavage from the membrane (FIG. 2A). High-grade glioma cells constitutively shed proteins such as CSPG4 and NLGN3 into their culture medium. […] These proteins represent cleaved ectodomains, given their failure to react with a C-terminal CSPG4 antibody (FIG. 2B). We also note that these proteins appear as smears by western blot in large part due to the effects of chondroitin sulfate as treatment of conditioned medium with Chondroitinase ABC collapses these smears into sharp bands (FIG. 2B).
CSPG4 Release Assay: DIPG neurospheres (13pons, 21) were cultured in defined medium (1:1 Neurobasal and DMEM F12, 1× Glutamax, 1× pen/strep, 1×MEM NEAA, 1× sodium pyruvate, 1×HEPES, 1×B-27 (w/o vit A) supplement, heparin, EGF, FGF, PDGF-AA, PDGF-BB) at 37C, 5% CO2. Cells were pelleted at 250G×5 min, medium aspirated, and washed in HBSS w/o calcium and magnesium. […] Dissociated and washed cells were resuspended in HBSS plus Ca+/Mg+ and counted. […]

primary mouse OPCs = assay: AN2 shedding from primary mouse OPCs; type: cell-based; conditions: primary mouse OPCs incubated with human sNLGN3
Excerpt: as §1

[2] = system: mouse-derived optic pathway glioma cells; assay: AN2 shedding from mouse-derived optic pathway glioma cells; type: cell-based; conditions: mouse-derived optic pathway glioma cells incubated with human sNLGN3
Excerpt: as §1

CC(C)(C(=O)NCC(F)(F)C(F)(F)F)C(=O)N[C@@H]1C(=O)Nc2ccccc2-c2ccccc21 [RO4929097]
mouse survival (DIPG13p xenografts): extends mouse survival

COC(=O)N1CC2(CC2)C[C@H](C(=O)NO)[C@H]1C(=O)N1CC=C(c2ccccc2)CC1 [Aderbasib]
mouse survival (DIPG6 xenografts): extends mouse survival

Tremelimumab: fully humanized CTLA4 antibody
toxicity (CTLA4; 10 mg/kg monthly regimen versus 15 mg/kg every 3 months, randomized clinical trial): doubled
sustained plasma level in patients with the majority of responses (CTLA4; at one month): > 30 µg/mL
dose at which objective responses were evident (CTLA4; single antibody infusion, doses 0.01 mg/kg to 15 mg/kg, patients): ≥ 3 mg/kg

CNC(=O)[C@@H](NC(=O)[C@H](CCCc1ccccc1)[C@H](C)N(O)C=O)C(C)(C)C [G1254023X]
shedding of CSPG4 into culture medium (baseline ADAM-mediated cleavage) ([1]; pre-treatment of glioma cells with ADAM10i, 4 uM, 15 minutes): prevents shedding

B1: recombinant NLGN3 ectodomains: recombinant human NLGN3 ectodomain, produced in house (protein, UniProt Q9NZ94 38-709, looked up)
extracellular domain: QAPAPTVNTHFGKLRGARVPLPSEILGPVDQYLGVPYAAPPIGEKRFLPPEPPPSWSGIRNATHFPPVCPQNIHTAVPEVMLPVWFTANLDIVATYIQEPNEDCLYLNVYVPTEDVKRISKECARKPNKKICRKGGSGAKKQGEDLADNDGDEDEDIRDSGAKPVMVYIHGGSYMEGTGNMIDGSILASYGNVIVITLNYRVGVLGFLSTGDQAAKGNYGLLDQIQALRWVSENIAFFGGDPRRITVFGSGIGASCVSLLTLSHHSEGLFQRAIIQSGSALSSWAVNYQPVKYTSLLADKVGCNVLDTVDMVDCLRQKSAKELVEQDIQPARYHVAFGPVIDGDVIPDDPEILMEQGEFLNYDIMLGVNQGEGLKFVEGVVDPEDGVSGTDFDYSVSNFVDNLYGYPEGKDTLRETIKFMYTDWADRDNPETRRKTLVALFTDHQWVEPSVVTADLHARYGSPTYFYAFYHHCQSLMKPAWSDAAHGDEVPYVFGVPMVGPTDLFPCNFSKNDVMLSAVVMTYWTNFAKTGDPNKPVPQDTKFIHTKANRFEEVAWSKYNPRDQLYLHIGLKPRVRDHYRATKVAFWKHLVPHLYNLHDMFHYTSTTTKVPPPDTTHSSHITRRPNGKTWSTKRPAISPAYSNENAQGSWNGDQDAGPLLVENPRDYSTELS
modifications: extracellular domain
notes: recombinant human NLGN3 ectodomain, produced in house
ADAM-mediated CSPG4 cleavage ([1]; glioma cells exposed to 100 nM recombinant human NLGN3 ectodomain, 1 hour): augments this ADAM-mediated CSGP4 cleavage
shedding of murine AN2 (primary mouse OPCs): augment the shedding of murine AN2
shedding of murine AN2 [2]: augment the shedding of murine AN2
